Two molecules from US20060281109, “Polymerases” (published 2006) can be followed below.

Series [1] has as its target T1, 9°N-7 YAV C223S exo- R713A (Thermococcus sp. 9°N-7) (UniProt Q56366).
T1 sequence: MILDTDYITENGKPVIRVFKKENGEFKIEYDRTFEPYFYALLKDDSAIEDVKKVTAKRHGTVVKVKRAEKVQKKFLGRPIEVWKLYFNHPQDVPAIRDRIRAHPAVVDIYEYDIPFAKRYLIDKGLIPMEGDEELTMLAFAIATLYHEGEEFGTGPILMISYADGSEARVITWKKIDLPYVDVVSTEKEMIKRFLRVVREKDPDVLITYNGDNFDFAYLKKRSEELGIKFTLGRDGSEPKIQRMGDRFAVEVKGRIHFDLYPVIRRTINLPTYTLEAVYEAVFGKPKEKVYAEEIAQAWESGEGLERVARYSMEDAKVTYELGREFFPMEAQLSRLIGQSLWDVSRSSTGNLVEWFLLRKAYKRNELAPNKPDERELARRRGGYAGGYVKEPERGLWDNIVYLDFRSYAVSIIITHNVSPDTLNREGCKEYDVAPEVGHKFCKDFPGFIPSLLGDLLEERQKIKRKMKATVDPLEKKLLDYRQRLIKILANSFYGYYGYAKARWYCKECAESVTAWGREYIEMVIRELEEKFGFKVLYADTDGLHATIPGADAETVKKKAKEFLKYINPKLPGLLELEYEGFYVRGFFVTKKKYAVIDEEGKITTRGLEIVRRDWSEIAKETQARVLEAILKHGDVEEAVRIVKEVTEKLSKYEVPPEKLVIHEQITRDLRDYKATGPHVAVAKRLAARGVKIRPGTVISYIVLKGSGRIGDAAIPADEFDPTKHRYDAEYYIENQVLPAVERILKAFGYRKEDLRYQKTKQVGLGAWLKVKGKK
As to conditions: kobs, DNA:pol 5:1; single exponential, amplitude ~90%.

Series [2] has as its target T2, 9°N-7 YAV C223S exo- R743A (Thermococcus sp. 9°N-7) (UniProt Q56366).
T2 sequence: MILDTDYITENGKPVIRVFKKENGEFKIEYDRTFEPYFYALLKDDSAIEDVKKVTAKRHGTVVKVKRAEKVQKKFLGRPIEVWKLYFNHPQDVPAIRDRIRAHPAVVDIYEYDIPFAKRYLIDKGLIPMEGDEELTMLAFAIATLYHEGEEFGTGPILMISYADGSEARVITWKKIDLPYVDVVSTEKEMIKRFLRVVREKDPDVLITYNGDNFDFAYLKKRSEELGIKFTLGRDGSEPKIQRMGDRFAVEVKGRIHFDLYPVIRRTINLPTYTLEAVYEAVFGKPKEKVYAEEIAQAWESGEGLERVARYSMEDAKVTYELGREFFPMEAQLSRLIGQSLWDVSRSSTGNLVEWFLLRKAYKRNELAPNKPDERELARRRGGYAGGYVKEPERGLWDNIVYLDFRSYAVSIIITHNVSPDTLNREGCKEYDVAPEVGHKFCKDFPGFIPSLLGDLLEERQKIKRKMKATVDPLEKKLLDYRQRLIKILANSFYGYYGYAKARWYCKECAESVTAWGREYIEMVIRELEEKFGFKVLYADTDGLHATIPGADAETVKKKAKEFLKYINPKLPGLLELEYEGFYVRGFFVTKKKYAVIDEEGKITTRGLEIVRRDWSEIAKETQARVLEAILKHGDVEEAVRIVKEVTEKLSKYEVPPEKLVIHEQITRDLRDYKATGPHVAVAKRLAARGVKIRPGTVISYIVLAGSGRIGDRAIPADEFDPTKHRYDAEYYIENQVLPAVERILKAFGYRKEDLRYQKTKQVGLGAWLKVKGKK
The settings on record: kobs, DNA:pol 5:1; single exponential, amplitude ~90%.

Series [3] has as its target T3, 9°N-7 YAV C223S exo- K705A (Thermococcus sp. 9°N-7, UniProt Q56366 SEQ:1-775).
T3 chain: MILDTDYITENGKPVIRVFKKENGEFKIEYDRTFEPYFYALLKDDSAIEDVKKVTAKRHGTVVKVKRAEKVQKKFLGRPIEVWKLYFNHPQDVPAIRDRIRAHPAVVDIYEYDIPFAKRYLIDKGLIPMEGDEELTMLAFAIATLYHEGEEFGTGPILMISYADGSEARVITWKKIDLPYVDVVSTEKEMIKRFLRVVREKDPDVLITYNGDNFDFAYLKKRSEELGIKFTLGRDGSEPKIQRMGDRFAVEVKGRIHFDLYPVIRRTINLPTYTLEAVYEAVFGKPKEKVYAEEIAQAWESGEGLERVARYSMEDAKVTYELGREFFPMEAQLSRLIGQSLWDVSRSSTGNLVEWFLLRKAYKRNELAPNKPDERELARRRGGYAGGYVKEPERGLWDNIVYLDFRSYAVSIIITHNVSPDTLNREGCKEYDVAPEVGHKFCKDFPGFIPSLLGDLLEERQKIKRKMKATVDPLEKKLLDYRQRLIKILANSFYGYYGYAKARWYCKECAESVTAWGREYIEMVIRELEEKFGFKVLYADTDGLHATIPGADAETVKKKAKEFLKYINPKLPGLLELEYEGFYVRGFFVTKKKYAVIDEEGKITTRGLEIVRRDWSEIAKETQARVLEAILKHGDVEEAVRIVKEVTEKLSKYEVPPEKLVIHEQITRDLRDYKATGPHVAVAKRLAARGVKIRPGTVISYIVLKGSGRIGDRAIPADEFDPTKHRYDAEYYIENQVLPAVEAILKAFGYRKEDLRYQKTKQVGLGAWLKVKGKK
The settings on record: burst kobs, DNA:pol 5:1; biphasic, burst amplitude ~28%.

Series [4] concerns the target T4, 9°N-7 DNA polymerase YAV C223S exo- (clone 9) C223S,L408Y,Y409A,P410V (Thermococcus sp. 9°N-7) (UniProt Q56366).
T4 sequence: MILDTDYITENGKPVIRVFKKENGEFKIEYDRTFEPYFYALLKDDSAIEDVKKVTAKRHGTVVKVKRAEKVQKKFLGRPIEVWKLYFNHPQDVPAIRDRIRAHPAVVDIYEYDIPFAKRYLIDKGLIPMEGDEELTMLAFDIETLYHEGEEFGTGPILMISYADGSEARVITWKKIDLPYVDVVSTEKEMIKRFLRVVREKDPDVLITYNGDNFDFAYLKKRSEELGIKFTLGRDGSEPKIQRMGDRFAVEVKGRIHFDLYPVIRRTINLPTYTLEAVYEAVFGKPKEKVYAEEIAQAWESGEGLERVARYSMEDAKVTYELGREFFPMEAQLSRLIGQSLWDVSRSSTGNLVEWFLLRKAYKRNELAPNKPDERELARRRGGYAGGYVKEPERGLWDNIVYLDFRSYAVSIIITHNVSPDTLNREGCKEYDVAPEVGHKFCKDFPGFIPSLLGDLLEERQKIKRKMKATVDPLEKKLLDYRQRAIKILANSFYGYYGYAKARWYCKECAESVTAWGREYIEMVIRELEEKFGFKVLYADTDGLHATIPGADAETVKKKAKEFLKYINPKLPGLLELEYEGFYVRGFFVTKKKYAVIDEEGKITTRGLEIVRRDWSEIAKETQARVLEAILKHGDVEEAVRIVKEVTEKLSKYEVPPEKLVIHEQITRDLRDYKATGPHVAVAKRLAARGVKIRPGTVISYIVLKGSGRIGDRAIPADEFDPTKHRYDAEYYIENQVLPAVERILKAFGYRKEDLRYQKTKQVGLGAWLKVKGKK
The settings on record: burst kobs, DNA:pol 5:1; biphasic, burst amplitude 19%.

Series [5] deals with T5, 9°N-7 YAV C223S exo- 71 deletion (C-terminus 704) (Thermococcus sp. 9°N-7) (UniProt Q56366).
T5 sequence: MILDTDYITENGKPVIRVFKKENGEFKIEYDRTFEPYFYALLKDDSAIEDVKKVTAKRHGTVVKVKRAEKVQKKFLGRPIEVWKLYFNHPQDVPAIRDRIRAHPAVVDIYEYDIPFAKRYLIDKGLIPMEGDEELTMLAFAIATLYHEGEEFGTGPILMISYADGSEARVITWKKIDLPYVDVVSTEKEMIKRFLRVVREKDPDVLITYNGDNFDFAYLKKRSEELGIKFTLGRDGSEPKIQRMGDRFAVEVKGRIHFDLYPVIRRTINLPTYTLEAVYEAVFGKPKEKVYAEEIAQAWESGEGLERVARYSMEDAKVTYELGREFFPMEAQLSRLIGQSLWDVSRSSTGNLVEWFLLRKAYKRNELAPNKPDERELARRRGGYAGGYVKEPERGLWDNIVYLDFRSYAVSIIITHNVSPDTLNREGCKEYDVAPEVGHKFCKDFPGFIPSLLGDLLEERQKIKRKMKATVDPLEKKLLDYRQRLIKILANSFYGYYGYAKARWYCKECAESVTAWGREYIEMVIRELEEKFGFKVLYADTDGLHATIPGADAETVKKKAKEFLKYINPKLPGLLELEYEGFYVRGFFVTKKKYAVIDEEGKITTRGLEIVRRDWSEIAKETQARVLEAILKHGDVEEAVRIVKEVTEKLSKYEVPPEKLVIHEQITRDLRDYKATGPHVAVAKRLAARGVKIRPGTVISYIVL
The settings on record: crude enzyme; kobs relative to YAV, essentially inactive.

For series [6], the target named is T3, 9°N-7 YAV C223S exo- K705A. In words: washing assay; similar response to clone 9. The settings on record: hairpin with 5' overhang. As for the experimental part: Once washed, each well was incubated with a 20 μl aliquot of 500 nM enzyme (clone 9, K705A, R713A or R743A mutants) at 45° C. for 30 minutes. Post incubation, each well was washed with […] 10 mM Tris pH 8.0, 10 mM EDTA including varying concentrations of NaCl (0, 0.05, 0.1, 0.3, 0.4, 0.75, 1.0, 2.0 M) and then […] MilliQ water. Wells were subsequently pre-equilibrated with enzymology buffer prior to a further incubation of 20 μl of 2 μM ffT-N3-647 at 45° C. for 30 minutes. Wells were washed with 3×100 ml high salt wash buffer (10 mM Tris pH 8.0, 1M NaCl, 10 mM EDTA) and then 3×100 ml MilliQ water. Strips scanned on Typhoon fluorescence imager (y5 filter, PMT=500 V).

As to 10 A hairpin DNA, the activity in series [1] was 0.01 s⁻¹; in series [2], 0.004 s⁻¹; in series [3], 0.06 s⁻¹; in series [4], 0.06 s⁻¹. In addition, the relative kobs (% of YAV) in series [5] stood at 21%.

B1: A-template hairpin oligo 815 (structured_DNA)
DNA: CGATCACGATCACGATCACGATCACGATCACGATCACGCTGATGTGCATGCTGTTGTTTTTTTACAACAGCATGCACATCAGCG
modifications: 5'-amino, surface coupled
For B1, the binding result in series [6] was “binds”.
